Read-outs that look alike come from different tables or passages of the source.
T1: full-length mouse GLP1R on HEK293/CRE-Luc/mGLP1R cells (mouse, UniProt O35659 22-463)
T1 construct: whole, on cells
T1 sequence (looked up): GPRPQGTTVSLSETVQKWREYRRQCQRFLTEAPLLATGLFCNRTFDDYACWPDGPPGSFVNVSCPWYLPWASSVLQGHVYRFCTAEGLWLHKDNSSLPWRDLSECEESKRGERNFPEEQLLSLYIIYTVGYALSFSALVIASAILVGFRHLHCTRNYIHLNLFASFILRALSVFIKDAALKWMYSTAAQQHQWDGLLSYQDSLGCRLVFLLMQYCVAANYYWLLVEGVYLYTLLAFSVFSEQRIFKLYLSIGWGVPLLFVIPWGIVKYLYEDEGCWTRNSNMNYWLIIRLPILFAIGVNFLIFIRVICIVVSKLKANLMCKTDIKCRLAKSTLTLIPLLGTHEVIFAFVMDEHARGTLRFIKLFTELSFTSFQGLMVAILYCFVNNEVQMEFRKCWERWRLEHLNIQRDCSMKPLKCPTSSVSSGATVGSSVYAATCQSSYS

T2: full-length human gastric inhibitory polypeptide receptor on HEK293/CRE-Luc/hGIPR cells (human, UniProt P48546 22-466)
T2 sequence (looked up): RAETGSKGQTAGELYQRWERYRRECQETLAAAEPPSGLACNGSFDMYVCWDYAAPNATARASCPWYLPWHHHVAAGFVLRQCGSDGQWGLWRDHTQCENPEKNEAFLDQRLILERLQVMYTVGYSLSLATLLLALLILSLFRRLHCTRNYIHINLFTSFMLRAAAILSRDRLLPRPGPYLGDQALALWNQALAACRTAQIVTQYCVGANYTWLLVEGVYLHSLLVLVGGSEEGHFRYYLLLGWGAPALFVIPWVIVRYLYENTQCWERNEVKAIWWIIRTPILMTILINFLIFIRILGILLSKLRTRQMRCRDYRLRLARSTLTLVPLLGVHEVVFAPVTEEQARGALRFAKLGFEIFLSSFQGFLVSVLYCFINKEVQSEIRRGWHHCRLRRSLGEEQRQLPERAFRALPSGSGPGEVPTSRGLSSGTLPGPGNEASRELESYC

T3: full-length human glucagon-like peptide 2 receptor on HEK293/CRE-Luc/hGLP2R cells (human, UniProt O95838 1-553)
T3 sequence (looked up): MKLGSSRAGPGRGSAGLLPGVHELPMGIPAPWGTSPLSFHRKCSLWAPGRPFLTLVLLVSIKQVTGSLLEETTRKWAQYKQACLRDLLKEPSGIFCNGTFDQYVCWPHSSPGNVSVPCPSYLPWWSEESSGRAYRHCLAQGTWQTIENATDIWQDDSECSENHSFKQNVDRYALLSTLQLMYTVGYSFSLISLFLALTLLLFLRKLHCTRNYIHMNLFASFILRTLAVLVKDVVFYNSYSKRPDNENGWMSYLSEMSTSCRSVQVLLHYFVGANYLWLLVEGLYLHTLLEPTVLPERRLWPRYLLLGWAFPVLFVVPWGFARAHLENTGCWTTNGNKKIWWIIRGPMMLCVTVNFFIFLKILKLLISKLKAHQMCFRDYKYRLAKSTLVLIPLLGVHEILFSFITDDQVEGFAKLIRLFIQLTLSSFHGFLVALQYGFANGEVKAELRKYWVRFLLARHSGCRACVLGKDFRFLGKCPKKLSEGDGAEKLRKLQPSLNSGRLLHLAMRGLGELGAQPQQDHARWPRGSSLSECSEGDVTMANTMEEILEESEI

B1: REGN9268 (antibody, human IgG4 S228P, kappa)
heavy: not shown
light: LLQGSGEIVLTQSPGTLSLSPGERDTLSCRASQSIAGRYVAWYQQKPGQAPRLLIYGASSRATGIPDRFSGSGSGTDFTLTISRLEPEDFAVYYCQQYGSSPWTFGQGTKVEIKRTVAAPSVFIFPPSDEQLKSGTASVVCLLNNFYPREAKVQWKVDNALQSGNSQESVTEQDSKDSTYSLSSTLTLSKADYEKHKVYACEVTHQGLSSPVTKSFNRGEC
notes: IgG4; Q-tag LLQGSG at the N-terminus of the light chain; also called mAb 17; REGN9268 unconjugated Ab
B2: REGN9267-M3190 (antibody, human IgG4 S228P, kappa)
heavy: not shown
light: EIVLTQSPGTLSLSPGERDTLSCRASQSIAGRYVAWYQQKPGQAPRLLIYGASSRATGIPDRFSGSGSGTDFTLTISRLEPEDFAVYYCQQYGSSPWTFGQGTKVEIKRTVAAPSVFIFPPSDEQLKSGTASVVCLLNNFYPREAKVQWKVDNALQSGNSQESVTEQDSKDSTYSLSSTLTLSKADYEKHKVYACEVTHQGLSSPVTKSFNRGEC
modifications: linker-payload M3190 (LP11) on Gln 3 of the N-terminal Q-tag LLQGSG
notes: antibody-tethered drug conjugate; Q-tag on heavy chain; also called REGN9267 ATDC
B3: REGN8070-M3190 (antibody, human IgG4 S228P, kappa, V domains shown)
VH: QVQLVESGGGVGQPGRSLRLSCAASGFTFSRNAMHWVRQAPGKGLEWVAVISYDGSNKHYADSVKGRFTISRDNSKNTLYLEMNSLRVEDTAVYYCAKGGIPFDYWGQGTLVTVSS
VL: DIVMTQSPLSSPVTLGQPASISCRSSQSLVHFDGNTYLSWLHQRPGQPPRLLIYKISNRFSGVPDRFSGSGAGTDFTLKISRVEPEDVGVYYCMHATQFPYTFGQGTKLEIKR
modifications: linker-payload M3190 (LP11) on Gln 3 of the N-terminal Q-tag LLQGSG
notes: antibody-tethered drug conjugate; also called REGN8070 ATDC
B4: COMP Anti-GLP1R mAb1 conjugated to LP2 (antibody, human IgG4 S228P, kappa, V domains shown)
VH: QVTLKESGPGILQPSQTLSLTCSFSGFSLSTSGTGVGWIRQPSGKGLEWLSHIWWDDVKRYNPALKSRLTISRDTSYSQVFLRIASVDTADTATYYCARILDGTGPMDYWGQGTSVTVSS
VL: QIVLTQSPAIMSASPGEKVTMTCSASSRVTYMHWYQQRSGTSPKRWIYDTSKLASGVPARFSGSGSGTSYSLTISSMEAEDAATYYCQQWGNNPQYTFGGGTRLEIKR
modifications: azido-PEG3-amine on the Gln of the N-terminal Q-tag LLQGSG, clicked to LP2 (DIBAC-suc-PEG8-P9)
B5: REGN8072-M3190 (antibody, human IgG4 S228P, kappa, V domains shown)
VH: QVQLVESGGGVVQPARSLRLSCAASGFAFSRSAMHWVRQAPGKGLEWVAVISYDGSNKYYTDSVKGRFTISRDNSKNTLYLQMNTLRAEDTALYYCAKMYTTMDSFDYWGQGTLVTVSS
VL: DIQLTQSPSFLSASVGDRVTITCWASQGISSYLAWYQQKPGKAPKLLIYAASTLQSGVPSRFSGSGSGTEFTLTISSLQPEDFALYYCQQLNSYPRTFGQGTKVEIKR
modifications: linker-payload M3190 (LP11) on Gln 3 of the N-terminal Q-tag LLQGSG
notes: antibody-tethered drug conjugate; also called REGN8072 ATDC; anti-GLP1R mAb4-LP11
B6: REGN7990 (antibody, human IgG4 S228P, kappa, V domains shown)
VH: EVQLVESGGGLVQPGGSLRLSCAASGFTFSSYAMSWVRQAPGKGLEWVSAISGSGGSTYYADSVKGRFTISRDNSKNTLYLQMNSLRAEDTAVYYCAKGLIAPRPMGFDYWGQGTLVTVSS
VL: DIQMTQSPSSVSASVGDRVTITCRASQGINSWLAWYQQKPGKAPKLLIYAASSLQSGVPSRFSGSGSGTDFTLTISSLQPEDFATYYCHQADSFPYTFGQGTKLEIKR
notes: IgG4; Q-tag on light chain N-terminus; also called mAb 3; REGN7990 unconjugated Ab

Assays:
[1] = target: T4, full-length cynomolgus GLP1R on HEK293/CRE-Luc/mfGLP1R cells (cynomolgus, UniProt F8V479 24-463); assay: flow cytometry, mfGLP1R cells
T4 construct: whole, on cells

[2] = target: T1, full-length mouse GLP1R on …; assay: flow cytometry, mGLP1R cells
[3] = target: T4, full-length cynomolgus GLP1R on …; assay: flow cytometry, mfGLP1R cells; remark: listed apart in the source
[4] = target: T5, full-length human GLP1R on HEK293/CRE-Luc/hGLP1R cells (human, UniProt P43220 24-463); assay: flow cytometry, hGLP1R cells
T5 construct: whole, on cells

[5] = target: T5, full-length human GLP1R on …; assay: flow cytometry, hGLP1R cells; remark: listed apart in the source
[6] = target: T4, full-length cynomolgus GLP1R on …; assay: cell-based or functional assay
[7] = target: T2, full-length human gastric inhibitory …; assay: cell-based or functional assay
[8] = target: T3, full-length human glucagon-like peptide …; assay: cell-based or functional assay
[9] = target: T6, full-length human glucagon receptor on HEK293/CRE-Luc/hGCGR cells (human, UniProt P47871 26-477); assay: cell-based or functional assay
T6 sequence (P47871 26-477): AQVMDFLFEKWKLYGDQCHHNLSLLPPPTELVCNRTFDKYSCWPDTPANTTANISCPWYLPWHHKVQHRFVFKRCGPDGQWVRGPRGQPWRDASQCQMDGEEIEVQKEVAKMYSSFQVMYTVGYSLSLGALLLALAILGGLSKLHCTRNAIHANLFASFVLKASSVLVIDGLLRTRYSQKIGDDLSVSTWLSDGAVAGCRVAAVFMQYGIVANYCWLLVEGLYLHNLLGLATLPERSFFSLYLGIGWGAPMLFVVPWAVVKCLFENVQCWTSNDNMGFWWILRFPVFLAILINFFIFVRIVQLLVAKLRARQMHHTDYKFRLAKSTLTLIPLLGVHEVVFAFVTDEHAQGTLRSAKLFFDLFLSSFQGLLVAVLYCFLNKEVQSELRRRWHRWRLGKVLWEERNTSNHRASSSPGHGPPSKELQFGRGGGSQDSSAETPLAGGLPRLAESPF

[10] = target: T5, full-length human GLP1R on …; assay: cell-based or functional assay
[11] = target: T5, full-length human GLP1R on …; assay: cell-based or functional assay; remark: listed apart in the source
[12] = target: T7, N-terminal ectodomain of human GLP1R expressed with a myc-myc hexahistidine tag (human, UniProt P43220 24-145, limits assumed); assay: SPR, captured via anti-hFc, 25 C
T7 construct: extracellular domain; also called hGLP1R-MMH; hGLP1R.mmh
T7 sequence (P43220 24-145 limits assumed): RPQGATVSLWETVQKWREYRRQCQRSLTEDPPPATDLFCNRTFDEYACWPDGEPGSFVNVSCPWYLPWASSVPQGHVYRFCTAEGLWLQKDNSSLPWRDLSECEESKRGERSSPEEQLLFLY

[13] = target: T5, full-length human GLP1R on …; assay: cell-based or functional assay; remark: listed apart in the source
[14] = target: T4, full-length cynomolgus GLP1R on …; assay: cell-based or functional assay; remark: listed apart in the source
[15] = target: T2, full-length human gastric inhibitory …; assay: cell-based or functional assay; remark: listed apart in the source
[16] = target: T3, full-length human glucagon-like peptide …; assay: cell-based or functional assay; remark: listed apart in the source
[17] = target: T6, full-length human glucagon receptor on …; assay: cell-based or functional assay; remark: listed apart in the source
[18] = target: T5, full-length human GLP1R on …; assay: cell-based or functional assay; remark: listed apart in the source

Binder | EC50 [1] [nM] | EC50 [2] [nM] | EC50 [3] [nM] | EC50 [5] [nM] | Flow S/N [5] [fold] | CRE-luc EC50 [6] [nM] | CRE-luc EC50 [7] [nM] | CRE-luc EC50 [8] [nM] | CRE-luc EC50 [9] [nM] | CRE-luc EC50 [10] [nM] | CRE-luc EC50 [11] [nM] | CRE-luc Relative Potency (% M2361 EC50) [11] [%] | CRE-luc Relative Signal:Noise (% M2361) [11] [%] | CRE-luc S/N [11] [fold] | Flow S/N [3] [fold] | 90 nM hGLP1R.mmh Bound (RU) [12] [RU] | Kd [12] [nM] | koff [12] [s⁻¹] | kon [12] [M⁻¹ s⁻¹] | t1/2 [12] [h] | other results
B1 | 4.13 | 45 | 0.81 |  |  |  |  |  |  |  |  |  |  |  |  |  |  |  |  |  | EC50 [4]: 3.33 nM
B2 |  |  | 4.44 | 5.08 | 269 | 0.25 | > 200 | > 200 | > 200 | 0.212 | 0.0854 | 19 | 107 | 68.9 | 212 | 110 | 0.528 | 0.000186 | 353000 | 1.03 | 
B3 |  |  | 3.71 | 4.39 | 166 | 0.0973 | > 200 | > 200 | > 200 | 0.094 | 0.0984 | 16.5 | 112 | 71.8 | 155 | 86.7 | 0.069 | 6.06e-05 | 878000 | 3.17 | 
B4 |  |  |  |  |  |  |  |  |  |  |  |  |  |  |  |  |  |  |  |  | CRE-luc EC50 [13]: 0.0217 nM; CRE-luc Relative Potency (% P8 EC50) [13]: 126%; CRE-luc Relative Signal:Noise (% P8) [13]: 96.4%; CRE-luc S/N [13]: 227 fold
B5 |  |  | 3.39 | 3.88 | 173 | 0.137 | > 200 | > 200 | > 200 | 0.114 | 0.0874 | 18.6 | 125 | 80.7 | 148 | 77.3 | 0.17 | 0.000297 | 1.74e+06 | 0.65 | 
B6 | 7.47 | 61.4 | 0.988 | 1.89 | 256 |  |  |  |  |  |  |  |  |  | 205 |  |  |  |  |  | Flow S/N [1]: 528 fold; Flow S/N [2]: 154 fold; CRE-luc EC50 [14]: > 30 nM; CRE-luc EC50 [15]: > 30 nM; CRE-luc EC50 [16]: > 30 nM; CRE-luc EC50 [17]: > 30 nM; CRE-luc EC50 [18]: > 30 nM; EC50 [4]: 8.48 nM; Flow S/N [4]: 260 fold
